{"source": "paper PMC5521740", "target": "T1, His-CRP (cAMP receptor protein) (Klebsiella pneumoniae NTUH-K2044) (UniProt A0ACD7U7W2)", "T1 sequence": "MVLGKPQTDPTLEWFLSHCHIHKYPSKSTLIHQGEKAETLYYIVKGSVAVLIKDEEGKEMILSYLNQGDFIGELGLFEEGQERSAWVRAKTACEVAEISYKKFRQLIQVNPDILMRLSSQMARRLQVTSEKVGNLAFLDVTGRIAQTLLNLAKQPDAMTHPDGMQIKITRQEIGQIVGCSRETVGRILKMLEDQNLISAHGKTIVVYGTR", "experiment": "DNase I footprinting", "conditions": "5x binding buffer ([…], room temperature, 20 min ([…]) or 30 min ([…]"}
{"sequence": "ATACCGGCAGCTGCGAGTAATTTTACGTTTTTCATGGTGTTTGTCCTTTTAACTTTTATGGTGGAAAGCATGTTTGCTTTCGATGGACTTATAATAAGTCTGCTAACTATAACGCGCGTGGCAAAAAGTGCGATTTAGATCACATTTTTATGGCGGTTTGATGGCGTAAACATGATCGTTTATCTATTTTTTAATTTAAAAACAATCAATTAATGATTTGCTTCTGAAAGGGGGTATCACAT (double strand) [KP1_4563 promoter footprinting fragment]", "values": [{"measurement": "binding", "value": "binds"}]}
